Source: paper PMC10653890, “The morphogenic protein CopD controls the spatio-temporal dynamics of PBP1a and PBP2b in Streptococcus pneumoniae” (mBio, 2023)

B1: CopDED, extracellular two-PEPSY domain of CopD (Met38 to Leu162) (domain or fragment)
chain: SMKPYQTAKSEGEKLAQQYAGLEQADQVDLYNGLESYYSVLGRNKQQEALAVLIGKDDHKIYVYQLNQGISQEKAETVSKEKGAGEIDKITFGRYQDKPIWEVKSGSDFYLVDFETGALVNKEGL
modifications: labelled with the Protein labeling kit red NHS 2nd generation (Nanotemper)
B2: PBP2bTP, transpeptidase domain of PBP2b (Met39 to Asn685) (domain or fragment)
chain: MQVLNKDFYEKKLASASQTKITSSSARGEIYDASGKPLVENTLKQVVSFTRSNKMTATDLKETAKKLLTYVSISSPNLTERQLADYYLADPEIYKKIVEALPSEKRLDSDGNRLSESELYNNAVDSVQTSQLNYTEDEKKEIYLFSQLNAVGNFATGTIATDPLNDSQVAVIASISKEMPGISISTSWDRKVLETSLSSIVGSVSSEKAGLPAEEAEAYLKKGYSLNDRVGTSYLEKQYEETLQGKRSVKEIHLDKYGNMESVDTIEEGSKGNNIKLTIDLAFQDSVDALLKSYFNSELENGGAKYSEGVYAVALNPKTGAVLSMSGIKHDLKTGELTPDSLGTVTNVFVPGSVVKAATISSGWENGVLSGNQTLTDQSIVFQGSAPINSWYTQAYGSFPITAVQALEYSSNTYMVQTALGLMGQTYQPNMFVGTSNLESAMEKLRSTFGEYGLGTATGIDLPDESTGFVPKEYSFANYITNAFGQFDNYTPMQLAQYVATIANNGVRVAPRIVEGIYGNNDKGGLGDLIQQLQPTEMNKVNISDSDMSILHQGFYQVAHGTSGLTTGRAFSNGALVSISGKTGTAESYVADGQQATNTNAVAYAPSDNPQIAVAVVFPHNTNLTNGVGPSIARDIINLYQKYHPMN

Legend:
[1] = target: T1, PBP1aTP, transpeptidase domain of PBP1a (Ser266 to Asn650) (S. pneumoniae R800 strain, UniProt Q8DR59 266-650); assay: MST; Monolith NT.115; labelled CopDED at 168 nM, PBP2bTP 5.2 µM to 0.159 nM or PBP1aTP 4.5 µM to 0.137 nM; 20 mM HEPES pH 7.5, 300 mM NaCl, 10% glycerol, 0.1% Tween 20; 25°C; details: both partners purified
T1 construct: also called PBP1aTP-6his; source: E. coli BL21 star (DE3), purified (Ni-NTA; extracellular domain digested by trypsin; gel filtration)
T1 sequence (looked up): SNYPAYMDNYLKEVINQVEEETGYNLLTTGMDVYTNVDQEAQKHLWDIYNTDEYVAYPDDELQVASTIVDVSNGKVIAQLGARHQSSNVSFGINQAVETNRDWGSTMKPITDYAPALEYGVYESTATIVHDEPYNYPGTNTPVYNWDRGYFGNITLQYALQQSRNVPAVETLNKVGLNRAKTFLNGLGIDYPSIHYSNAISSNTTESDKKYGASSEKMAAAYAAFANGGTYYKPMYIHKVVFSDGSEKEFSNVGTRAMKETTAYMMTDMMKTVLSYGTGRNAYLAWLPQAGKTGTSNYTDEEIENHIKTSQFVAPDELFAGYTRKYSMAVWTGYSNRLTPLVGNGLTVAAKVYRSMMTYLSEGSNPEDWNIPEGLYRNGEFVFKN

[2] = target: B1; assay: as above; details: both partners purified

Q: Which Kd [1] does the source give for B1 here?
A: Its Kd is greater than 10 µM.

Q: With B2 as the binder, how does the Kd [2] read?
A: Its Kd is greater than 10 µM.
